Reference: US7063843 (OKLAHOMA MEDICAL RESEARCH FOUNDATION, dated 2006)

What was measured:
[1] = molecular target: T1, 125I-labeled activated protein C (human, UniProt P04070 43-197; P04070 212-461, radioiodinated with Na[125I] by Iodogen; positions not stated); test: 125I-APC binding to HUVEC monolayers at 4 C, Scatchard analysis
T1 construct: Specific activity 1x10^4 cpm/ng
Experimental: At the indicated times, cells were washed and bound radioactivity was measured. […] After washing, bound radioactivity was measured. […] Specific binding was determined as described below.
Monolayers of HUVEC in 24-well microplates (Costar) (1×10⁵ cells per well) were washed twice with EDTA/PBS and once with ice-cold HBSS. […] After washing three times with ice-cold HBSS, cells were released with the EDTA buffer, and the bound radioactivity was measured in a gamma counter (Isodata 500). To determine non-specific, calcium-independent adsorption of radioactivity, the cells were washed with EDTA/PBS and residual radioactivity in the cell pellet was measured. Non-specific binding of radioactivity was consistently less than 5% of the specific binding. The data was analyzed using the Enzfitter program (Elsevier Biosoft, Cambridge, U.K.).

human protein C = molecular target: T2, human protein C (human, UniProt P04070 43-461); test: summary statement; the direct measurement was 125I-APC on HUVEC, and protein C displaced F1-APC equivalently to APC
T2 construct: also called PC
T2 sequence (P04070 43-461): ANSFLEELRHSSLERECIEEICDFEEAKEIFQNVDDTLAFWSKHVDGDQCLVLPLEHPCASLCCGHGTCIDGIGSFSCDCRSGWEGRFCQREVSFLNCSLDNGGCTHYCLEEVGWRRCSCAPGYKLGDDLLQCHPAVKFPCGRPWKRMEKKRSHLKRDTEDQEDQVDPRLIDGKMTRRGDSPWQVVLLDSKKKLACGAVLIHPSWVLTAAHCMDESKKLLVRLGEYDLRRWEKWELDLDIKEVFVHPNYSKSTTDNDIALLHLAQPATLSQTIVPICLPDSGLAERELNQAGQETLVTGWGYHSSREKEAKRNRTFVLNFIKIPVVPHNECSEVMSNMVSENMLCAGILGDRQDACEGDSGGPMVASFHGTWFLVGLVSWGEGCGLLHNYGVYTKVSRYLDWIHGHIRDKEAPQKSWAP

T1 sequence (P04070 43-197, chain 1 of 2): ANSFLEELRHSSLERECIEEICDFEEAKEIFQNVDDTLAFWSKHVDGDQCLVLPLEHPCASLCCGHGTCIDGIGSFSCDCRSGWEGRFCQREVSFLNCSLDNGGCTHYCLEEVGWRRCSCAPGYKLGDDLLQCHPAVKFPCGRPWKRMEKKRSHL
T1 sequence (P04070 212-461, chain 2 of 2): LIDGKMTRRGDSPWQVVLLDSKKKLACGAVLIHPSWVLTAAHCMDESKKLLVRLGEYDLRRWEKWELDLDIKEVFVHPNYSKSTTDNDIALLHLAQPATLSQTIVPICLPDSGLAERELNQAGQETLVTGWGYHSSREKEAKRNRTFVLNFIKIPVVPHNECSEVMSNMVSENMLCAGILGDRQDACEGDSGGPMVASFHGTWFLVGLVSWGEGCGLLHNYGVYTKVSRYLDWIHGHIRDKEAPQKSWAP

Kd [1]: 30 nM
Kd (human protein C): 30 nM
B1: endothelial cell protein C/activated protein C receptor (EPCR), human (receptor)
chain: FCSQDASDGLQRLHMLQISYFRDPYHVWYQGNASLGGHLTHVLEGPDTNTTIIQLQPLQEPESWARTQSGLQSYLLQFHGLVRLVHQERTLAFPLTIRCFLGCELPPEGSRAHVFFEVAVNGSSFVSFRPERALWQADTQVTSGVVTFTLQQLNAYNRTRYELREFLEDTCVQYVQKHISAENTKGSQTSRSYTSLVLGVLVGGFIIAGVAVGIFLCTGGRRC
notes: also called EPCR-1 (clone)
